One molecule from publication PMC9287321 (Scientific Reports, 2022) can be followed below.

The target in the assay is T1, AFP_(158–166) peptide complexed with HLA-A*02:01 (Homo sapiens, HLA-A*02:01).
T1 construct: HLA-A*02:01 heavy chain, soluble recombinant; β2-microglobulin, recombinant; alpha-fetoprotein (AFP) peptide, residues 158–166; also called AFP/HLA-A*02; AFP/HLA-A*02 complex; copies: + +
Kind of assay: SPR; Biacore T200, CM5 chip; AFP/HLA-A*02 amine coupled (100–200 RU); kinetic titration, five injections of increasing TCRm, 100 μL/min, 25 °C; 1:1 binding model; mean of three experiments. The following applies: both partners purified. In general terms: SPR reads the build-up and loss of mass on a sensor chip optically.

B1: anti-AFP TCRm antibody, Fab fragment (Fab, V domains shown)
VH: EVQLVQSGAEVKKPGESLTISCKASGYSFPNYWITWVRQMSGGGLEWMGRIDPGDSYTTYNPSFQGHVTISIDKSTNTAYLHWNSLKASDTAMYYCARYYVSLVDIWGQGTLVTVSS
VL: QSVLTQPASVSGSPGQSITISCTGTSSDVGGYNYVSWYQQHPGKAPKLMIYDVNNRPSEVSNRFSGSKSGNTASLTISGLQAEDEADYYCSSYTTGSRAVFGGGTKLTVL
notes: Fab cut by papain from human IgG1; also called TCR mimic antibody; TCRm Fab fragment
For the molecule B1, the Kd (usually the equilibrium constant for the complex coming apart) was found to be 7 nM.
